Molecular target: T1, Tim13p (recombinant, co-expressed with Tim8p in E. coli) (S. cerevisiae, UniProt P53299 1-105)
T1 sequence (looked up): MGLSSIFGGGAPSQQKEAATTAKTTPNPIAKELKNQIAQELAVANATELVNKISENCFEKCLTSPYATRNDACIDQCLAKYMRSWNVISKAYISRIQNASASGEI
Assay: quantitative amino acid analysis

- stoichiometry N: 1 molar ratio
B1: Tim8p (recombinant, co-expressed with Tim13p in E. coli) (natural protein, S. cerevisiae, UniProt P57744 1-87, looked up)
chain: MSSLSTSDLASLDDTSKKEIATFLEGENSKQKVQMSIHQFTNICFKKCVESVNDSNLSSQEEQCLSNCVNRFLDTNIRIVNGLQNTR

From PMC2173223 (The Journal of Cell Biology, 2002)
